Experimental data from patent US20210340530A1 (INTELLIA THERAPEUTICS, published 2021).

Legend:
[1] = target: T1, VLD-Tetramer (pMHC tetramer with WT1 peptide …); test: flow cytometry, VLD-Tetramer staining of engineered T cells; TRAC + TRBC RNP
T1 construct: Staining reagent; also called VLD (Wilms' tumor antigen) tetramer; TCR specific pMHC tetramer
Description: (§1) Four to 12 days after RNP nucleofection, edited T cells (200 ul/200,000 cells) were collected in a 96 well round bottom plate and spun down at 500 g for 5 minutes. Cells were then resuspended in an antibody mixture containing a combination of antibodies targeting CD3, CD4, CD8, CD45RO, CD45RA, CD27, CCR7, CD62L, and/or the TCR specific pMHC tetramer or TCR specific Vbeta chain antibody. The mixture was incubated for 45 minutes at room temperature in the dark. Samples were spun down at 500 g for 5 minutes, cell pellets collected, and resuspended in 1:10,000 DAPI (Biolegend—#422801) in FACS buffer. Flow cytometry was then performed using the cytoflex according to the manufacturer's instructions.
(§2) T cells were evaluated with additional engineered TCRs for the impact of endogenous beta chains on pairing of both the inserted alpha chain and inserted beta chain. The experiment was performed as described herein except tetramer staining was used to measure MFI and the AAV inserts in Table 31 were used for transduction.

[2] = target: T1, VLD-Tetramer (pMHC tetramer with WT1 …); test: flow cytometry, VLD-Tetramer staining of engineered T cells; TRAC RNP only
Description: as §1, §2

[3] = target: T2, … (RMF) WT1 peptide pulsed on target cells (HLA-02.01 positive T2 cell line; OCI-AML3); test: cell-based or functional assay
[4] = target: T3, … (VLD) WT1 peptide pulsed on target cells (HLA-02.01 positive T2 cell line; OCI-AML3); test: cell-based or functional assay
[5] = target: T3, … (VLD) WT1 peptide pulsed on target …; test: cell-based or functional assay; remark: listed apart in the source
[6] = target: T3, … (VLD) WT1 peptide pulsed on target …; test: cell-based or functional assay; remark: listed apart in the source
[7] = target: T2, … (RMF) WT1 peptide pulsed on target …; test: cell-based or functional assay; remark: listed apart in the source
[8] = target: T3, … (VLD) WT1 peptide pulsed on target …; test: cell-based or functional assay; remark: listed apart in the source
[9] = target: T2, … (RMF) WT1 peptide pulsed on target …; test: cell-based or functional assay; remark: listed apart in the source
[10] = target: T3, … (VLD) WT1 peptide pulsed on target …; test: cell-based or functional assay; remark: listed apart in the source

B1: TCR-F (WT1-specific T-cell receptor) (TCR, V domains shown)
V domain 1: AQKITQTQPGMFVQEKEAVTLDCTYDTSDPSYGLFWYKQPSSGEMIFLIYQGSYDQQNATEGRYSLNFQKARKSANLVISASQLGDSAMYFCAISGNTPLVFGKGTRLSVIA
V domain 2: AAGVIQSPRHLIKEKRETATLKCYPIPRHDTVYWYQQGPGQDPQFLISFYEKMQSDKGSIPDRFSAQQFSDYHSELNMSSLELGDSALYFCASSLRGGLEKLFFGSGTQLSVLE
notes: also called AV14-TCR-F
Mean % Tetramer+ (CD4+) [1]: 81.8%
Mean % Tetramer+ (CD8+) [1]: 76.6%
Mean Tetramer MFI (CD4+) [1]: 231000 MFI
Mean Tetramer MFI (CD8+) [1]: 172000 MFI
Mean % Tetramer+ (CD4+) [2]: 78.9%
Mean % Tetramer+ (CD8+) [2]: 61%
Mean Tetramer MFI (CD4+) [2]: 67300 MFI
Mean Tetramer MFI (CD8+) [2]: 50100 MFI

B2: TCR-A (WT1-specific T-cell receptor) (TCR)
TCR alpha: SQQPVQSPQAVILREGEDAVINCSSSKALYSVHWYRQKHGEAPVFLMILLKGGEQKGHEKISASFNEKKQQSSLYLTASQLSYSGTYFCGTAWINDYKLSFGAGTTVTVRANIQNPDPAVYQLRDSKSSDKSVCLFTDFDSQTNVSQSKDSDVYITDKTVLDMRSMDFKSNSAVAWSNKSDFACANAFNNSIIPEDTFFPSPESSCDVKLVEKSFETDTNLNFQNLSVIGFRILLLKVAGFNLLMTLRLWSS
TCR beta: DAGVIQSPRHEVTEMGQEVTLRCKPISGHDYLFWYRQTMMRGLELLIYFNNNVPIDDSGMPEDRFSAKMPNASFSTLKIQPSEPRDSAVYFCASRKTGGYSNQPQHFGDGTRLSILEDLKNVFPPEVAVFEPSEAEISHTQKATLVCLATGFYPDHVELSWWVNGKEVHSGVSTDPQPLKEQPALNDSRYCLSSRLRVSATFWQNPRNHFRCQVQFYGLSENDEWTQDRAKPVTQIVSAEAWGRADCGFTSESYQQGVLSATILYEILLGKATLYAVLVSALVLMAMVKRKDSRG
notes: P2A remnant on the beta chain is not described; also called AV11-TCR-A; TCR-A (no cys)
% CD4+ CD107a+; TRAC/TRBC; 50 nM RMF; T2 [3]: 4.3%
% CD8+ CD107a+; TRAC/TRBC; 50 nM RMF; T2 [3]: 22.1%
% CD4+ CD107a+; TRAC/TRBC; 0 nM VLD; T2 [4]: 4.45%
% CD4+ CD107a+; TRAC/TRBC; 0.005 nM VLD; T2 [4]: 4.64%
% CD4+ CD107a+; TRAC/TRBC; 0.05 nM VLD; T2 [4]: 4.68%
% CD4+ CD107a+; TRAC/TRBC; 0.5 nM VLD; T2 [4]: 4.23%
% CD4+ CD107a+; TRAC/TRBC; 5 nM VLD; T2 [4]: 11.8%
% CD4+ CD107a+; TRAC/TRBC; 50 nM VLD; T2 [4]: 21.1%
% CD8+ CD107a+; TRAC/TRBC; 0 nM VLD; T2 [4]: 21.9%
% CD8+ CD107a+; TRAC/TRBC; 0.005 nM VLD; T2 [4]: 37.3%
% CD8+ CD107a+; TRAC/TRBC; 0.05 nM VLD; T2 [4]: 64.1%
% CD8+ CD107a+; TRAC/TRBC; 0.5 nM VLD; T2 [4]: 73%
% CD8+ CD107a+; TRAC/TRBC; 5 nM VLD; T2 [4]: 75.8%
% CD8+ CD107a+; TRAC/TRBC; 50 nM VLD; T2 [4]: 76.2%
IL2 release; TRAC only; 0 nM VLD; T2 [5]: 2.26 pg/mL
IL2 release; TRAC only; 0.005 nM VLD; T2 [5]: 2250 pg/mL
IL2 release; TRAC only; 0.05 nM VLD; T2 [5]: 2050 pg/mL
IL2 release; TRAC only; 0.5 nM VLD; T2 [5]: 2010 pg/mL
IL2 release; TRAC only; 5 nM VLD; T2 [5]: 4270 pg/mL
IL2 release; TRAC only; 50 nM VLD; T2 [5]: 7060 pg/mL
IL2 release; TRAC only; 500 nM VLD; T2 [5]: 8380 pg/mL
IL2 release; TRAC/TRBC; 0 nM VLD; T2 [5]: 314 pg/mL
IL2 release; TRAC/TRBC; 0.005 nM VLD; T2 [5]: 304 pg/mL
IL2 release; TRAC/TRBC; 0.05 nM VLD; T2 [5]: 227 pg/mL
IL2 release; TRAC/TRBC; 0.5 nM VLD; T2 [5]: 200 pg/mL
IL2 release; TRAC/TRBC; 5 nM VLD; T2 [5]: 494 pg/mL
IL2 release; TRAC/TRBC; 50 nM VLD; T2 [5]: 1180 pg/mL
IL2 release; TRAC/TRBC; 500 nM VLD; T2 [5]: 1510 pg/mL
Mean % Tetramer+ (CD4+) [1]: 48%
Mean % Tetramer+ (CD8+) [1]: 51.2%
Mean Tetramer MFI (CD4+) [1]: 11300 MFI
Mean Tetramer MFI (CD8+) [1]: 23700 MFI
Mean % Tetramer+ (CD4+) [2]: 7.6%
Mean % Tetramer+ (CD8+) [2]: 12.7%
Mean Tetramer MFI (CD4+) [2]: 10100 MFI
Mean Tetramer MFI (CD8+) [2]: 21900 MFI
IFN-gamma release; TRAC/TRBC; 50 nM VLD; T2 [6]: 40200
IFN-gamma release; TRAC/TRBC; 500 nM VLD; T2 [6]: 47600
IFN-gamma release; only TRAC; 50 nM VLD; T2 [6]: 28100
IFN-gamma release; only TRAC; 500 nM VLD; T2 [6]: 31500
Caspase 3/7 integrated intensity; TRAC only; 500 nM RMF; T2 [7]: 7340
Caspase 3/7 integrated intensity; TRAC/TRBC; 500 nM RMF; T2 [7]: 280000
Caspase 3/7 integrated intensity; TRAC only; 0 nM VLD; T2 [8]: 9040
Caspase 3/7 integrated intensity; TRAC only; 0.005 nM VLD; T2 [8]: 9180
Caspase 3/7 integrated intensity; TRAC only; 0.05 nM VLD; T2 [8]: 16900
Caspase 3/7 integrated intensity; TRAC only; 0.5 nM VLD; T2 [8]: 38800
Caspase 3/7 integrated intensity; TRAC only; 5 nM VLD; T2 [8]: 137000
Caspase 3/7 integrated intensity; TRAC only; 50 nM VLD; T2 [8]: 207000
Caspase 3/7 integrated intensity; TRAC only; 500 nM VLD; T2 [8]: 233000
Caspase 3/7 integrated intensity; TRAC/TRBC; 0 nM VLD; T2 [8]: 381000
Caspase 3/7 integrated intensity; TRAC/TRBC; 0.005 nM VLD; T2 [8]: 374000
Caspase 3/7 integrated intensity; TRAC/TRBC; 0.05 nM VLD; T2 [8]: 1.13e+06
Caspase 3/7 integrated intensity; TRAC/TRBC; 0.5 nM VLD; T2 [8]: 1.17e+06
Caspase 3/7 integrated intensity; TRAC/TRBC; 5 nM VLD; T2 [8]: 1.33e+06
Caspase 3/7 integrated intensity; TRAC/TRBC; 50 nM VLD; T2 [8]: 1.2e+06
Caspase 3/7 integrated intensity; TRAC/TRBC; 500 nM VLD; T2 [8]: 1.57e+06
% CD4+ TNFa+ IFNg+; TRAC/TRBC; 50 nM RMF; T2 [9]: 1.6%
% CD8+ TNFa+ IFNg+; TRAC/TRBC; 50 nM RMF; T2 [9]: 10%
% CD4+ TNFa+ IFNg+; TRAC/TRBC; 0 nM VLD; T2 [10]: 1.1%
% CD4+ TNFa+ IFNg+; TRAC/TRBC; 0.005 nM VLD; T2 [10]: 1.6%
% CD4+ TNFa+ IFNg+; TRAC/TRBC; 0.05 nM VLD; T2 [10]: 1.2%
% CD4+ TNFa+ IFNg+; TRAC/TRBC; 0.5 nM VLD; T2 [10]: 1.8%
% CD4+ TNFa+ IFNg+; TRAC/TRBC; 5 nM VLD; T2 [10]: 11.1%
% CD4+ TNFa+ IFNg+; TRAC/TRBC; 50 nM VLD; T2 [10]: 25.1%
% CD8+ TNFa+ IFNg+; TRAC/TRBC; 0 nM VLD; T2 [10]: 9.4%
% CD8+ TNFa+ IFNg+; TRAC/TRBC; 0.005 nM VLD; T2 [10]: 21%
% CD8+ TNFa+ IFNg+; TRAC/TRBC; 0.05 nM VLD; T2 [10]: 53%
% CD8+ TNFa+ IFNg+; TRAC/TRBC; 0.5 nM VLD; T2 [10]: 74.3%
% CD8+ TNFa+ IFNg+; TRAC/TRBC; 5 nM VLD; T2 [10]: 79.8%
% CD8+ TNFa+ IFNg+; TRAC/TRBC; 50 nM VLD; T2 [10]: 81.3%
